The values that follow are results of earlier work, collected in paper PMC10054347.

The target of series [1] is T1, Epithelial cell adhesion molecule (EpCAM) (Homo sapiens (Human)) (UniProt P16422).
T1 sequence: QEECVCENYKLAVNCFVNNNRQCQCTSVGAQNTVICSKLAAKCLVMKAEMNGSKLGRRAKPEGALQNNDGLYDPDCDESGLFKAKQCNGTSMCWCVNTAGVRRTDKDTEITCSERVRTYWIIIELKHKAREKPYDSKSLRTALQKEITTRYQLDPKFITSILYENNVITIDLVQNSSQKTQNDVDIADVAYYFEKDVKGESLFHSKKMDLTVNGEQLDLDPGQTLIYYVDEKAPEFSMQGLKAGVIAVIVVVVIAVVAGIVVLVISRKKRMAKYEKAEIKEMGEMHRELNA
The series can be described thus: flow. Conditions: DPBS, 4.5 g/L glucose, 5 mM MgCl2, 10% FBS, 37 C; HepG2 cells overexpressing EpCAM.

In series [2] the target is PD-L1 (human) (Homo sapiens (Human)) (UniProt Q9NZQ7). The series can be described thus: flow. Particulars: MDA-MB-231 PD-L1 over-expressing cells, 4 C, 1 h.
Sequence of PD-L1 (human) (Homo sapiens (Human)) (Q9NZQ7 19-290): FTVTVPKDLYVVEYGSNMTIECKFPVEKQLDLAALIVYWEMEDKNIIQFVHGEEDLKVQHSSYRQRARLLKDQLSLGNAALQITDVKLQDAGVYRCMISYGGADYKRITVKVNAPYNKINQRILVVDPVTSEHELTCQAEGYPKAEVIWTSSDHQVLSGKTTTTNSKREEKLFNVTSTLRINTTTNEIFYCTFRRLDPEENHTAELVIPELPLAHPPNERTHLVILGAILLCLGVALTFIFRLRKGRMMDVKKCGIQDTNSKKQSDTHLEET
For series [3], the target named is Double homeobox protein 4 (human), full length (Homo sapiens (Human)) (UniProt Q9UBX2). The series can be described thus: FP. Conditions: hairpin with CCC bulge.
Sequence of Double homeobox protein 4 (human), full length (Homo sapiens (Human)) (Q9UBX2 whole entry): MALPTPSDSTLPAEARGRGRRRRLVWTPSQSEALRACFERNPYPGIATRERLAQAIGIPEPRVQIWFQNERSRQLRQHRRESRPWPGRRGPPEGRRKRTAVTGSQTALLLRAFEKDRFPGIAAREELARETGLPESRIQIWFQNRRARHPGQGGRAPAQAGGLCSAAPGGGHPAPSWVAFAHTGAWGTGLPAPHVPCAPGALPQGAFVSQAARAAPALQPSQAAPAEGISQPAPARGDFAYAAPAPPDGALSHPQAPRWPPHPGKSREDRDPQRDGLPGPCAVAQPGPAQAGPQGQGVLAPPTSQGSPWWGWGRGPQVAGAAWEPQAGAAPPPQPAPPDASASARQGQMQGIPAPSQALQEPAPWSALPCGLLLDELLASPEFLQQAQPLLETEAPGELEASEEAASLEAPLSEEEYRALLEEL
Series [4] deals with MMP14 (MT1-MMP) (Homo sapiens (Human)) (UniProt P50281). Put plainly: flow. Particulars: 293T-MMP14 cells; PBS, 10% FCS, 0.02% NaN3, 37 C, 30 min.
Series [5] has as its target T2, Aspartyl/asparaginyl beta-hydroxylase, human (Homo sapiens (Human)) (UniProt Q12797).
T2 sequence: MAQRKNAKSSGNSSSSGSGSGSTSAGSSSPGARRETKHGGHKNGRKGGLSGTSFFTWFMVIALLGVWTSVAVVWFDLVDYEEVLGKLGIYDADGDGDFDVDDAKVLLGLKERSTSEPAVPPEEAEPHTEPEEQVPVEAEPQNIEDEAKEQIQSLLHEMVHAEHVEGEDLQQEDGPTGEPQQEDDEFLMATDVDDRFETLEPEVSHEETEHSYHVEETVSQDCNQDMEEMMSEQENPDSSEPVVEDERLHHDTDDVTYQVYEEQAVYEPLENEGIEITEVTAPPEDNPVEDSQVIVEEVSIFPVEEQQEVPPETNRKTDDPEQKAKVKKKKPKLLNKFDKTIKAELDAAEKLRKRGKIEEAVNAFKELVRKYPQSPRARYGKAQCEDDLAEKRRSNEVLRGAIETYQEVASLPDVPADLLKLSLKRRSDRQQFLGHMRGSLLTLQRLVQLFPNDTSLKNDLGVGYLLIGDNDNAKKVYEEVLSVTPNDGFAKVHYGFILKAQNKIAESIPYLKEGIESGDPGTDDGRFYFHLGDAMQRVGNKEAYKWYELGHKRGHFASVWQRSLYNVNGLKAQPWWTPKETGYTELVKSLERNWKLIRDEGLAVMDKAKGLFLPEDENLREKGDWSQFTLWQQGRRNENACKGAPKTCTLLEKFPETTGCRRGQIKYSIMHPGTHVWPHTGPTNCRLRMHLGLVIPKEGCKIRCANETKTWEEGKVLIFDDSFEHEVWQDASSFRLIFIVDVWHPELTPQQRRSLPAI
The series can be described thus: flow. Particulars: HeLa-ASPH cells; DPBS, 5 mM MgCl2, glucose, BSA, tRNA.

The target of series [6] is alpha-thrombin (light + heavy chain) (Homo sapiens (Human)) (UniProt P00734+P00734). Put plainly: SPR. Particulars: 2'-F pyrimidines; 10 mM HEPES-KOH pH 7.5, 100 mM KCl; protein amine-coupled on CM5, BSA reference.
Series [7] concerns the target T3, SIRT1, human (Homo sapiens (Human)) (UniProt Q96EB6).
T3 sequence: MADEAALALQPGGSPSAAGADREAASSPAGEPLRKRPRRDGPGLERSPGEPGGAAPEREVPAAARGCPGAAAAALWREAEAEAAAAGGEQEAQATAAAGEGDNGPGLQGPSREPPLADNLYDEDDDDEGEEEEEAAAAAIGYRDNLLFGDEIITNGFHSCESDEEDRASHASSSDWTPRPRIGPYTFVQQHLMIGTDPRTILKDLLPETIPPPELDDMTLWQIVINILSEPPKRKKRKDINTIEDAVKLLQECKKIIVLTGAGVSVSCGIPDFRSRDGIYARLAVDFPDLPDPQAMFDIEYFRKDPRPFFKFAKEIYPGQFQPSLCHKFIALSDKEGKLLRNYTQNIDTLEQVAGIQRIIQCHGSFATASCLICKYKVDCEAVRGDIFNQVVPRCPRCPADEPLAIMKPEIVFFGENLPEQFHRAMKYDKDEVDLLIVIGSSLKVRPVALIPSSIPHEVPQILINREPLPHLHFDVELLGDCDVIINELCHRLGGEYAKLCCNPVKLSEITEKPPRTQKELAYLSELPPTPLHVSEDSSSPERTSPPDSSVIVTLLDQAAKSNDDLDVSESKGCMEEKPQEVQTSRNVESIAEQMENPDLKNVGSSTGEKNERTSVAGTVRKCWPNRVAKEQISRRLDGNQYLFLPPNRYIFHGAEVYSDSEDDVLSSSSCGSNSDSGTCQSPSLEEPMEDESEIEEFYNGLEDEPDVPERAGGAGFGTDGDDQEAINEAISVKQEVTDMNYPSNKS
Put plainly: SPR. Conditions: circular (ligated 40-mer, ESI Fig 4); 100 mM NaCl, 5 mM MgCl2, pH 7.4, 25 C.

Series [8] deals with Lactoferrin (bovine milk) (Bos taurus (Bovine)) (UniProt P24627). Put plainly: SPR. A general note: In SPR one partner is held on a chip, and binding of the other changes the refractive index at the surface.
Sequence of Lactoferrin (bovine milk) (Bos taurus (Bovine)) (P24627 20-708): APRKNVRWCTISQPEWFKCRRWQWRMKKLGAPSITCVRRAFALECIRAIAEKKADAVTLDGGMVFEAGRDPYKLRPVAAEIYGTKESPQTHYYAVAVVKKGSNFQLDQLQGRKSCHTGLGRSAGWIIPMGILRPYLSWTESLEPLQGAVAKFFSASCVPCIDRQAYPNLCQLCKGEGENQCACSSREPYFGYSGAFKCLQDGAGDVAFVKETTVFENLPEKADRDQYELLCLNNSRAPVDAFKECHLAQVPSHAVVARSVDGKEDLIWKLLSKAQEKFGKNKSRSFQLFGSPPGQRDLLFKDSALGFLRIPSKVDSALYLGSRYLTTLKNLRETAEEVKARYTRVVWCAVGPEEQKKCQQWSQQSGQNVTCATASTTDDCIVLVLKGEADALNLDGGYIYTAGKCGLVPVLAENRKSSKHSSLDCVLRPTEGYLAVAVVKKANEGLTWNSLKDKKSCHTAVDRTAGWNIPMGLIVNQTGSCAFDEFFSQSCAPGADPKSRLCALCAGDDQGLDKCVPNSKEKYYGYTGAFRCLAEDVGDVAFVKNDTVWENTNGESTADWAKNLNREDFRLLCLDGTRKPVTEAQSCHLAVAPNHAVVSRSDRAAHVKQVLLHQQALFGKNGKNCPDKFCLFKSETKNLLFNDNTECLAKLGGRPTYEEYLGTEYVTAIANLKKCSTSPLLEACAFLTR
In series [9] the target is T4, FGFR3b ectodomain, human (Homo sapiens (Human)) (UniProt P22607).
T4 sequence: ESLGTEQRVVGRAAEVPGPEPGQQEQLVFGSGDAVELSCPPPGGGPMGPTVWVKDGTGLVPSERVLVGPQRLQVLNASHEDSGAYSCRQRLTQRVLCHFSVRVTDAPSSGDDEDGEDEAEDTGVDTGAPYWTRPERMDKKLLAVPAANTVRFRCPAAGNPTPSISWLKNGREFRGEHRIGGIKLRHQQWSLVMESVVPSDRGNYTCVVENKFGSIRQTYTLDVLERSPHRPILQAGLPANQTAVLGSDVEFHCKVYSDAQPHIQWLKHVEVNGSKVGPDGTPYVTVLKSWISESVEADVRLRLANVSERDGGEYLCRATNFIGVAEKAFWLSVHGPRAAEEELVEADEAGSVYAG
The series can be described thus: flow. Conditions: 2'-F pyrimidines; 3'-inverted dT (not in strands); 5'-thiol; protein on protein G beads; DPBS / FACS buffer, 1 h, 37 C; apparent Kd.

Series [10] concerns the target T5, FGFR3c ectodomain, mouse (Mus musculus (Mouse)) (UniProt Q61851).
T5 sequence: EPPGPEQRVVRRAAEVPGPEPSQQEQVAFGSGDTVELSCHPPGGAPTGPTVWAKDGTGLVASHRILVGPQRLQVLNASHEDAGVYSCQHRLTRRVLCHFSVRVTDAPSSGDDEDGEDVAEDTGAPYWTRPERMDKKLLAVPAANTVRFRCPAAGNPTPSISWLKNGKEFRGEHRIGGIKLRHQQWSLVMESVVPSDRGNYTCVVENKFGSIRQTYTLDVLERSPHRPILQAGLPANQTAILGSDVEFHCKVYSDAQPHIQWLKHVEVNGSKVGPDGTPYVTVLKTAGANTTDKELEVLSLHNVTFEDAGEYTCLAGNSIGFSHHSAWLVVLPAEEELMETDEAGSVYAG
The series can be described thus: flow. Conditions: 2'-F pyrimidines; 3'-inverted dT (not in strands); 5'-thiol; protein on protein G beads; DPBS / FACS buffer, 1 h, 37 C; apparent Kd.

Series [11] deals with T6, C5a anaphylatoxin (mouse) (Mus musculus (Mouse)) (UniProt P06684).
T6 sequence: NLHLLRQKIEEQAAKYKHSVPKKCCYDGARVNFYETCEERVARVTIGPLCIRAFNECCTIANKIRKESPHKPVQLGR
The series can be described thus: SPR. Particulars: all L-RNA (Spiegelmer); 5' 40 kDa branched PEG via aminohexyl linker.

In series [12] the target is T7, C5a anaphylatoxin (human) (Homo sapiens (Human)) (UniProt P01031).
T7 sequence: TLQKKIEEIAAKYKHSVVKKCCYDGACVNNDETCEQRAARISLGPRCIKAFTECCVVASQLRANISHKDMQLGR
Put plainly: SPR. Conditions: all L-RNA (Spiegelmer); 5' 40 kDa branched PEG via aminohexyl linker.

Series [13] has as its target CD63 large extracellular loop (Homo sapiens (Human)) (UniProt P08962). Put plainly: ELONA. Particulars: binding buffer, 37 C, 1 h; protein adsorbed on plate.
Series [14] has as its target T8, NELF-E (Drosophila) (Drosophila melanogaster (Fruit fly)) (UniProt P92204).
T8 sequence: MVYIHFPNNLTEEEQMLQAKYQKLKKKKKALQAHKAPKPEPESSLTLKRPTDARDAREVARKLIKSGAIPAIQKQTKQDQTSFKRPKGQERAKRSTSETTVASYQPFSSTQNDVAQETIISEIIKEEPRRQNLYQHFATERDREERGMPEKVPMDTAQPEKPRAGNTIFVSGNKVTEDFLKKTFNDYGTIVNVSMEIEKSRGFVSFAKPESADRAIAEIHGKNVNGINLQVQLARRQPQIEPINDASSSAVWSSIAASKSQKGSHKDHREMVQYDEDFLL
Conditions: HiTS-RAP; 10 mM HEPES pH 7.5, 100 mM NaCl, 25 mM KCl, 5 mM MgCl2, 0.02% Tween-20, RT.

Series [15] addresses T9, RNA-binding protein Hfq (YmaH) K2E (Bacillus subtilis (strain 168)) (UniProt O31796).
T9 sequence: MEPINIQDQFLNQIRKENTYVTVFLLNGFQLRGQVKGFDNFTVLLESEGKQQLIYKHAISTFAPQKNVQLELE
Put plainly: EMSA. In general terms: In EMSA bound probe runs differently from free probe, usually more slowly.

Series [16] concerns the target PDGFR-alpha ectodomain (human) (Homo sapiens (Human)) (UniProt P16234). Put plainly: SPR. Particulars: 2'-F pyrimidines; 30 mM Tris-HCl pH 7.5, 150 mM NaCl, 5 mM MgCl2; aptamer on SA chip.
Series [17] has as its target Integrin alpha5 beta1 ectodomain (Homo sapiens (Human)) (UniProt P08648+P05556). The series can be described thus: SPR. Particulars: 2'-F pyrimidines; PBS 10 mM, 150 mM NaCl, 1 mM MgCl2, 0.005% P20, 25 C.
Series [18] concerns the target TGF-beta1 (mature) (Homo sapiens (Human)) (UniProt P01137). The series can be described thus: SPR. Conditions: 2'-F pyrimidines; 10 mM HEPES-KOH pH 7.5, 100 mM KCl; protein amine-coupled on CM5, BSA reference.

Sequence of TGF-beta1 (mature) (Homo sapiens (Human)) (P01137 279-390): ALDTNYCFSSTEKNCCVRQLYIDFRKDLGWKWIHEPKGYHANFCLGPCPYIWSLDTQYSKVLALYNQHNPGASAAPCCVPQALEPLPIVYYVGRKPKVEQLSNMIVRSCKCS
Sequence of CD63 large extracellular loop (Homo sapiens (Human)) (P08962 103-203): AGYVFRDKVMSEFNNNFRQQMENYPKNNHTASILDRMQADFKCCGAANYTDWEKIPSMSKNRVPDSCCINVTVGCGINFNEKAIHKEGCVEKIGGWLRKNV
Sequence of PDGFR-alpha ectodomain (human) (Homo sapiens (Human)) (P16234 24-524): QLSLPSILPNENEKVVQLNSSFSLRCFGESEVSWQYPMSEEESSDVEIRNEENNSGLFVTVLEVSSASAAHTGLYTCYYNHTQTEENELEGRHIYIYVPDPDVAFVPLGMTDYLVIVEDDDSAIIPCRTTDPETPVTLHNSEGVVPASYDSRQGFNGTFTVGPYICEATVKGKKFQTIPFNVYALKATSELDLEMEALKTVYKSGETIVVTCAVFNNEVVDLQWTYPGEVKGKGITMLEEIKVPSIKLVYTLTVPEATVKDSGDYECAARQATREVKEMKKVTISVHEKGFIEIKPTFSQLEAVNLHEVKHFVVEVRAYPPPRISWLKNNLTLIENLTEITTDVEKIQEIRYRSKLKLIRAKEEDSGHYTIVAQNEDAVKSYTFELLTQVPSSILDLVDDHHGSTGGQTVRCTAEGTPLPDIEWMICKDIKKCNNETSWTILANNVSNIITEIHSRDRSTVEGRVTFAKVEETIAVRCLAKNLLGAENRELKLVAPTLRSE
Sequence of Integrin alpha5 beta1 ectodomain (Homo sapiens (Human)) (P08648 42-995, chain 1 of 2): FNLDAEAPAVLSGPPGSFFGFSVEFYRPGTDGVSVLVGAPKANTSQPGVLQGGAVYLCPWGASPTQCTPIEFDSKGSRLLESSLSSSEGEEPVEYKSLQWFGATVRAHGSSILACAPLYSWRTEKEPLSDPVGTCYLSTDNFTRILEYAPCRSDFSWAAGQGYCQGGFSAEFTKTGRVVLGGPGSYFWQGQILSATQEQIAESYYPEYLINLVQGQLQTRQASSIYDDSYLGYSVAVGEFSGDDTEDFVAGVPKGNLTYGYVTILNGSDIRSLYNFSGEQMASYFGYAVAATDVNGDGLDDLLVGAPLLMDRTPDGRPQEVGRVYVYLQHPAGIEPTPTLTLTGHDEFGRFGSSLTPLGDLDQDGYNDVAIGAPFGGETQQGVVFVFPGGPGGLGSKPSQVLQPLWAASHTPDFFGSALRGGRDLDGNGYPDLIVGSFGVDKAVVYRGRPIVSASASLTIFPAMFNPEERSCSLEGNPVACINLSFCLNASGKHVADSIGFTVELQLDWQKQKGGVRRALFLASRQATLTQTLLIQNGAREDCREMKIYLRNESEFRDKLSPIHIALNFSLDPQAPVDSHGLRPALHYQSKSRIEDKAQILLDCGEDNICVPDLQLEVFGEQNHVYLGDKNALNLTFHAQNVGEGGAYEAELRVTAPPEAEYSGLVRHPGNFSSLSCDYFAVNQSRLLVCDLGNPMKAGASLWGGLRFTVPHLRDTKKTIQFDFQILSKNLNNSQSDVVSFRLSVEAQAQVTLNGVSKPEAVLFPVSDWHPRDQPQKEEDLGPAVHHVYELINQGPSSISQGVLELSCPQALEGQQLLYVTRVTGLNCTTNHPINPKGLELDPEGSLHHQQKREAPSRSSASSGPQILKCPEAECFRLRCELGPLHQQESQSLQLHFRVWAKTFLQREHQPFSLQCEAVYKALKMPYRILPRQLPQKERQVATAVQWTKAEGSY
Sequence of Integrin alpha5 beta1 ectodomain (Homo sapiens (Human)) (P05556 21-728, chain 2 of 2): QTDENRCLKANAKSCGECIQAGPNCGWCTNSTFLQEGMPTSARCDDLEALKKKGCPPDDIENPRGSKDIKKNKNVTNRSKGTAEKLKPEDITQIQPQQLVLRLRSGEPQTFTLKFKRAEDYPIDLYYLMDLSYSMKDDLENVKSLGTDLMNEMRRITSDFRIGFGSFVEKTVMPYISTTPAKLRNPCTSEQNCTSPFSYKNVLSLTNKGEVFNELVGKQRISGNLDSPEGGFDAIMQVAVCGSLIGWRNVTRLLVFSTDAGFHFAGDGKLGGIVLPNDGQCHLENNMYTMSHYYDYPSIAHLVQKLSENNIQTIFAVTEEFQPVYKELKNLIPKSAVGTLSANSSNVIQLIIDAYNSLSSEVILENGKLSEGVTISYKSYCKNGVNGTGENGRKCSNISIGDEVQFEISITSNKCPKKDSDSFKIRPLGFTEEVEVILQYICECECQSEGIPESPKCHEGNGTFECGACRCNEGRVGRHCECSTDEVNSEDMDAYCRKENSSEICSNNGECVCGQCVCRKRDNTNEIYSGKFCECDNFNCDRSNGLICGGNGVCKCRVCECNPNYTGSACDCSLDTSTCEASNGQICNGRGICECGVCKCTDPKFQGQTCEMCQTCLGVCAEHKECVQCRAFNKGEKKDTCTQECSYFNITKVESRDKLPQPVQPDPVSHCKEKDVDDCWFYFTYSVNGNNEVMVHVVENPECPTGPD

On to “AACAGAGGGACAAACGGGGGAAGATTTGACGTCGACGACA [EP166]”, for which the Kd in [1] was 5480 nM.
As to “ACCGACCGTGCTGGACTCATCTCGCTTTTTTCACGGTCCACACTACTATGAGCGAGCCTGGCG [XQ-P3]”, in [2], the Kd was 15.4 nM.
“AGCTAACTTAATCAACCGCAGGTTGATTAACCCGTTAGC [DUX4_CTT_R7CCC]”: in series [3], the Kd is 20 nM.
Consider “AGGGCCCGACGTGACGGCACGTCGGATATCTCATGCGTGT [M17]”, for which the Kd in series [4] was 4.98 nM.
As for “ATACCAGCTTATTCAATTCGGGACAAGACAACGAACGAACAGGAAGAGAACCGGAATGCAGACGTCAGGGAGATAGTAAGTGCAATCT [AP-Cell 1]”, the Kd in [5] is 47.5 nM.
For the sequence “CCUUUGGUUCGGAUAAUUAUUAAGUAUUGUCUUCAUUCA [Tbn#3]”, in series [6], the Kd was 1.4 nM.
For “CGAGTGGGTTACATCGAAACTGGATCTCAACAGCGGTAAC [AC3 (C3)]”, in series [7], the Kd was 0.27 nM.
Regarding “GCAGGACACCGTAACACGGGCTGATGCTCTCTTTATTTTACCTAAATAAAGTGTCCTGC [YFL-4 (Lac-A1), truncated 59-mer]”, the Kd in series [8] is 0.953 nM.
Regarding “GCCGAUGGUUUUGUGGCCGUUUGAGGUUCCUACGGC [iR3]”, the Kd in [9] is 48 nM; in [10], 36.6 nM.
Regarding “GCCUGAUGUGGUGGUGAAGGGUUGUUGGGUGUCGACGCACAGGC [NOX-D19]”, the figures for the Kd in series [11] and in series [12] were 0.051 nM and 1.39 nM, respectively.
“GCTGGACTCACCTCGACCAGAGCCATTGGGTTTCCTAGGAAATAGGGCCTTTACTATGAGCGAGCCTGGCG [LL4A]”: in [13], the Kd is 84.6 nM.
Regarding “GGGAAUGGAUCCACAUCUACGAAUUCCCAACGACUGCCGAGCGAGAUUACGCUUGAGCGCCCCACUGAGGAUGCCCACGGGCGAUUGGGGCACGGCUUCACUGCAGACUUGACGAAGCUU [NELFapt (full length)]”, in series [14], the Kd is 5.2 nM.
On to “GGGACACAAUGGACGUAGAGAGAGAUUAGAUCCUGUCCGCGGCUAUAACGGCCGACAUGAGAG [m49f]”, for which, in series [15], the Kd is 10 nM.
For the sequence “GGGAGAGCGGAAGCGUGCUGGGCCUGCUCUUUAAUAAACCCACUUUCGAACAUCAGCGUAUGUCCAUAACCCAGAGGUGAUGGAUCCCCC [PDR3]”, in series [16], the Kd is 0.25 nM.
For the sequence “GGUUACCAGCCUUCACUGCGGACGGACAGAGAGUGCAACCUGCCGUGCCGCACCACGGUCGGUCACAC [H02-2'F]”, the Kd in series [17] is 72 nM.
On to “UGGUAAUUUGUCGUUUAUACGGGUCCUCGCAUCUUCCUA [TGF#2 (probable)]”, for which, in [18], the Kd is 10 nM.
